# From the RNAGym collection of RNA variant scans (doi:10.1073/pnas.2313332121)
# B1: TPR t1 (parent)
# chain: GACCAAUCUGCCCUCAGAGCUCGAGAACAUCUUCGGAUGCAGAGGAGGCAGGCUUCGGUGGCGCGAUAGCGCCAACGUCCUCAACCUCCAAUGCAUCCCACCACAUGAUGAUGCCUGAAGAGCCUUGGUUUUUUG
# Variants of: B1
# Assay: polymerase ribozyme fitness, log enrichment relative to wild type (log ratio); higher = more active; in vitro selection for triplet polymerase activity
# In short: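 PCR was used to build mutant libraries for each subunit of a heterodimeric triplet polymerase ribozyme, which were then transcribed. A single in vitro selection round, in triplicate, used a frozen incubation at −7 °C and recovered extended constructs by gel excision, streptavidin beads and RT-PCR. Fitness is the logarithm of genotype enrichment relative to wild-type enrichment, averaged over replicates with inverse-variance weights. The logarithm is base 2, and after Illumina sequencing only genotypes with ≥10 input reads and ≥1 read per output were kept.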
row,Variant,polymerase ribozyme fitness (log ratio)
1,U59G C82U G93U U96C C123U,-0.453
2,C56G A111C A119U,-1.72
3,C56G C82U A91C U116C,-2.61
4,C56U C62G U112G,-5.4
5,G58C U78G A90C A118U G127C,-2.89
6,G58U G61C A90G,0.258
7,G60A C88U G120A G122U,0.196
8,C56G U87C,-0.336
9,G60A G93A,0.0256
10,G60A G122A U132C,-0.379
11,U59C C64U C82G C94U,-1.7
12,U59C C82A C88G,-2.83
13,G60A C94A G128C,-3.09
14,G58A G71U C79A,-1.79
15,G60A U130A,-0.439
16,G60A U130G,-0.663
17,C56U G61C G117C,-4.62
18,G57U C101G U106A G122A,-0.938
19,U59G C99U U106A,-1.43
20,C56A U96G G113A,-1.95
21,C56U C70A C115A G122A,-3.13
22,C56G C62G,-3.35
23,G58C G110C A121U,-4.05
24,G60C A111G,-0.122

row,Variant,polymerase ribozyme fitness (log ratio)
1,C56G U96A,-0.238
2,G57A C73G U87G U125A,-1.37
3,G60A U112C,1.25
4,G58U G61A,-0.176
5,G58C G63C G128A,-1.77
6,G57A G61A C104U,-0.114
7,C56G A66G C94A,-2.49
8,C56U U96A U106A,-0.662
9,C56U U106A,0.0907
10,G58C C80G C88A,-6.49
11,G58C C124A,1.82
12,C56U U67G G71A C80U G120C,-6.12
13,G60A G63A,-2.96
14,U59A G60A,0.122
15,U59A C123G G127A,0.53
16,C56G C70A A118U,-2.37
17,C56G G71U A121C,-2.41
18,C56U U130C,1.02
19,C56U U130A,0.174
20,C56G G113C,-1.92
21,G57C C70U,-0.607
22,G60C A74U U81G C115A,-3.12
23,G57C C62U,-0.549
24,G58C C101G U112C U129G,-1.34

row,Variant,polymerase ribozyme fitness (log ratio)
1,C56G C102A,-1.59
2,C56U G61A,-4.41
3,G58A A84U U133A,-0.154
4,C56G U129C,-0.877
5,G57U C72G U96A,-2.83
6,C56G C62U A103U U109G,-6.92
7,G57U C62A G117U,-5.4
8,G57C G61A G120A,0.501
9,G60A U116C,-0.935
10,C56G C79U,-0.342
11,G57U G77C U130G,-2.56
12,U59G G127U,-0.904
13,G57U G69U,-0.378
14,G57C G58A C114U,-3.53
15,G57U C70G C124G,-2.06
16,G58C U129G,-0.485
17,G60C C88A U112A,-0.182
18,C56G A74U C86A,-2.4
19,C56U C73A A100U,-1.12
20,C56G G57A G61C A118G,-4.8
21,U59G G77U G117A,-1.91
22,G57A U78G C82G,-0.698
23,G57A G60A,-0.384
24,C56U C76A,-2.9

row,Variant,polymerase ribozyme fitness (log ratio)
1,C56U C104U,0.166
2,C56U C101G,-2.07
3,C56U G117A,-1.46
4,U59C U96C,-0.447
5,C56U U133A,-0.575
6,C56G U125A,-1.54
7,U59G C124U,1.25
8,G60A U96C A118G,-0.126
9,G58A U59C,-0.583
10,U59C U129C,-1.12
11,C56U C62U C101G U133A,-3.24
12,C56U G128A,-1.64
13,G57A G77C,-2.28
14,G57C G63A A100U U112C U125C,-0.23
15,U59C G120A G135U,-0.46
16,G57U C94A,-1.08
17,C56G C94G U112A,-0.000426
18,C56U G93A C97U U129A,-2.25
19,G57U G63A C89G,-3.98
20,C56G C64U C123U,0.0926
21,G57C U81C,0.391
22,C56G C80A,-1.38
23,U59G A111C,0.213
24,G57C C88U A95U,-1.98

row,Variant,polymerase ribozyme fitness (log ratio)
1,U59A G63C C82A G127A,-2.72
2,C56G C73G,-2.66
3,U59A G128C,-2.5
4,U59A C89U C124A U125A,1.78
5,G60A C115A,-0.714
6,G60A C115G,-1.65
7,G60A C94U,-0.196
8,G57U G110U,-1.8
9,G58U G60A U87A A103U,-5.31
10,G57C C62A G122A,-3.31
11,C56U G71A,-2.84
12,C56U G71U,-1.85
13,G57U C123U,0.41
14,G57A U87C,-1.14
15,G57U C94G U112G,-4.47
16,C56U G77A C94U C102A,-2.87
17,C56G G58U U59C,1.36
18,C56U C124U U133G,1.14
19,G60A C101U,-0.265
20,C56U U131G,0.127
21,G60A G120C,0.892
22,U59A G77U G117U,-2.87
23,G60C A118U,-0.0622
24,U59C U78G,-0.0388

row,Variant,polymerase ribozyme fitness (log ratio)
1,G57U G71C,-3.42
2,U59C C102U C114G,-5.47
3,U59C A91G U133G,-2.51
4,U59A G93U,-0.878
5,U59C G93A,-1.47
6,G60A G117U,-1.75
7,G60A G117C,-2.42
8,G60C A74U C88G,-2.91
9,G60A G110U,-1.74
10,G60C A121U U125G U129G,-0.914
11,C56G U96G U125A,-1.29
12,G60A C80U,-1.64
13,C56U U112C G117C G120U G127C U132A,-4.94
14,G60A A74U U92A C104U U133A,-2.03
15,C56A U112A,1.46
16,C56U C88U,-0.153
17,G60A C79A A84U,-2.32
18,G57C A83G U116G,-2.83
19,G58A C114G,-3.37
20,G57U G58C,-1.12
21,G57U A74G,-0.836
22,G58C C86A C89G,-4.05
23,U59A C82G A119U,-0.921
24,G57C G135U,-0.876

row,Variant,polymerase ribozyme fitness (log ratio)
1,G57A A95C,-1.81
2,G57U C70U C76G U131C,-0.726
3,G60A U92G C115A G120C,-2.03
4,C56G U87A G120A,-0.872
5,C56G C72G C115A,-2.98
6,G60C A66G,-1.22
7,G57C C115A,0.0474
8,C56U C70U U96A,-2.06
9,C56A U92G,-2.6
10,G57U U81G,-0.222
11,U59C C124A,2.03
12,C56U C115G,-2.56
13,C56U C82U C86A U112G U129C,-1.4
14,G58C C85A,0.0552
15,G58A C64U U78C C86U A111C U129C,-1.68
16,G58U C104U A105U G110A C124U U133G,-7.29
17,C56G C82G C115G A121U,-0.801
18,C56G G77C U130G,-0.115
19,G58A C62A,-2.66
20,C56U G113U G120A,-3.03
21,C56U G57A C79G,-1.48
22,U59C U78C A83U C115A,-1.1
23,U59A A66C C124A,0.00699
